Reference: paper PMC3227653 (PLoS ONE, 2011)

B1: A5.1m (VHH)
VHH: QVKLEESGGGLVQAGGSLRLSCAASGRTFSMYRMGWFRQAPGKEREFVCVITRNGSSTYYADSVKGRFTCSRDNAKNTVYLQMNSLKPEDTALYYCAATSGSSYLDAAHVYDYWGQGTQVTVSS
B2: A4.2m (VHH)
VHH: QVKLEESGGGLVQAGGSLRLSCAASGRTFNTLSMGWFRQAPGKEREFVCAVSRSGGSTYYADSVKGRFTCSRDNAKNTVYLQMNSLKPEDTAVYYCAAAATKSNTTAYRLSFDYWGQGTQVTVSS
B3: A20.1m (VHH)
VHH: QVQLVESGGGLAQAGGSLRLSCAASGRTFSMDPMAWFRQPPGKEREFVCAGSSTGRTTYYADSVKGRFTCSRDNAKNTVYLQMNSLKPEDTAVYYCAAAPYGANWYRDEYAYWGQGTQVTVSS
B4: A26.8m (VHH)
VHH: QVKLEESGGGLVQAGGSLRLSCAASERTFSRYPVAWFRQAPGAEREFVCVISSTGTSTYYADSVKGRFTCSRDNAKVTVYLQMNNLKREDTAVYFCAVNSQRTRLQDPNEYDYWGQGTQVTVSS

These binders were tested against Clostridium difficile toxin A (Clostridioides difficile …, UniProt P16154) (assay: SPR). Conditions: both partners purified.

| Binder | Kd | koff | kon |
| --- | --- | --- | --- |
| B1 | 17 nM | 0.016 s⁻¹ | 950000 M⁻¹ s⁻¹ |
| B2 | 20 nM | 0.019 s⁻¹ | 930000 M⁻¹ s⁻¹ |
| B3 | 9.2 nM | 0.0059 s⁻¹ | 640000 M⁻¹ s⁻¹ |
| B4 | 28 nM | 0.028 s⁻¹ | 1e+06 M⁻¹ s⁻¹ |
